Experimental data from the supplement of paper PMC9170038.

Each sequence was assayed on K4 kissing-loop RNA reporter (assay: apparent KD of K4 kissing-loop reporter; higher = weaker reporter binding). Details: Eterna round: R107; input ligand: arginine 13.2 mM.
Experimental: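 RNA-MaP round R107: designed RNA switches with theophylline, tryptophan, arginine or FMN aptamers are transcribed on-chip within common flanks. They are titrated with a labelled K4 kissing-loop RNA reporter in RNA-MaP buffer (100 mM Tris pH 7.5, 80 mM KCl, 4 mM MgCl2), without ligand or with the indicated ligand. Median apparent KD per design.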
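Further: bound reporter read as fluorescence of individual clusters on recovered sequencing chips by microscopy, with normalized cluster intensities fitted with a binding model.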

Sequence	apparent KD of K4 kissing-loop reporter [nM]
UGUCAUUGGUCUGAUACCAGAAGAAAUCUGGAGUGAUGUUCCGAGUACGACAAAAGUCGCUUCCCUUGGCAGCAGACCGAUGACU [TheoBS 22 #SwitchBubble 13 #StaticStem]	198
GGAUAGGACAGAGGAUAUCUCUGAGGCAAGAAAACUUGUCUCUAAAGGGAUGACUCAGUGAUGUUGAGAGAAGGCUGUCCUAUCG [FmnBX 11 - #SwitchBubble #StaticStem]	141
UUGGGCGAGGUAACGUGGAUAUCUCGUCGCAAGGAUAUCUGGAAACAGAGAAGGUGCUACAUUACCGGCAGUGAUGUUGCUGACC	101
UACUCUCCUCCUGAUACCAGAUAAAUAUUAAUACAUUAGUGAUGUUAAUGCCCAAACCCGAUCCCUUGGCAGCAGAAUAUGCAGG [theeternabot_sameState_KL_Theo_B_25]	240
AUUUUAGAGUGAUGUUCUAUUUGAUCAGAUACCAGACAAUUAUAAGUCCCUUGGCAGCUGUAGCCGAUAAAUUUAAUUAAUUUAA [JR_ExcTheophyA_Sub012]	223
UAGUCCUCUUCUUAUUUAUUCCCUAAUGCUAAGGAUAUCCGAAUUCGGAGAAGGUAGUGAUGUUACUUGAAGGGACAUAUUUAUU [AK6 Exc FMN A]	554

Same assay, conditions: Eterna round: R107; input ligand: none

Sequence	apparent KD of K4 kissing-loop reporter [nM]
AGUGAUGUGGGAAGGAGCGCUACAAGACUUCAGUGAUGUUGAAGUGAUGUUUUAGUGUUGUAGCAGGUAGGUCGCCUAGAUGUUA [KL-XARG-B10]	42.5
GUAGUCGUACCUUCAGUGAUGUUGAAGGAUACCAGAUGUUACCACAUCCCUUGGCAGCCUUGGGAUAACAGUGAGUUGGAAUAUG [Soonusa]	159
GGAUCCACCAGUGAUGUUGGAGAAAACUUCAAGGAUAUGACGAAAGUCAGAAGGUGGUAGACUGGACAAAGUCCGGUAGGAUCCA [FmnA10 U29+A78]	490
GCGCGUCAUGUCAGCGGUGACUAUGUCGAUACCAGCGCCGCAAGGCGCCCUUGGCAGCGACGCGCUGGAGUGAUGUUCCAGCGUG [#2 Exclusion - Theophylline A Attempt #10 (HarryS)]	140
GGGCGCGGCGCGGCCGCCACUGGGCCUGGGCGCUCGCUGAGUGAUGUUCGCCGGCGGCUGGGUCGUAGGACCGGGUGCCGGCUGG [BDazzled - #3 SS Tryptophan B]	1270
AAGUUGAACUGAAGGAGCGAGAAAUAGAAUGUAAGAAUAUAUGCUAGUGAUGUUAGAAAUUCUCAGGUAGGUCGCAGUAAGAUUU [V1.1]	330
ACAGUCCCGCAUGGUGCGAACGAGAGAUGGCGAGGACCGGUACGGCCGCCACUCGAACAAGUGAUGUUUGAUAUCAUUUUUCUAC [theeternabot_sameState_KL_Trp_A_10]	117
UAAGAGGACCACUGCGAGAGUCCUCGAAUACGAGGACCGGUACGGCCGCCACUCGAUAACUUGCAGUGAUGUUGCAAGUAAGAAU [BrourdMod 3 - Jieux - Same State Tryptophan A]	94.1
CUGUUGUAGACUGAUACCAGUCUCACAGCAGAUGUGUGGGACUUAGUGAUGUUAAGUACCGACCCUUGGCAGCAGUCUACGACCU [Theo B SS t6]	377
GUAGUGAUGUUACGAGUAUUCCAUCGUAGAGAGGAUAUGGUUCCUUCCAGAAGGUUCUGAGAAUUAAAAUUUGAUAAAAUGAGGG [Exclusion FMN A GF 2]	390
UUGUUUGGUUGAGAGGUUGGGCGAGAUGAUACCAGUAUAGUAUUGUACCCUUGGCAGCAUAUGAGAGAUAUAGUGAUGUUGUAUG [SSTheophA.X]	529
GGCGGGUGCCCGUAAGGGUGCCCGGCCGAUACCAGCGCGACGGCGCGCCCUUGGCAGCGGCGCCGAGUGAUGUUCGGCCUGCCGU [#2 Same State - Theophylline A Attempt #24 (HarryS)]	90.6
GAGAAUCUCACGGCCGCCACUCACCUGUUAAUUGACAUCGACGGCCUCGACCAGUGAUGUUGUGUGAGGACCGGGUGUCUCGUGU [theeternabot_exclusion_KL_Trp_B_32]	702
AUGGGCACGUCGGCCGCCACUACACGGUCCCGCGAGGGCCAGUGAUGUUGGUCGACGUGCCGUUGUAGGACCGGGACGUGGCUGU [Teatondi]	79
AGUGAUGUUUUUUUUAAGAGUGAUGUUUUUCGAGGACCGGUACGGCCGCCACUCGAGUGAUGAGUGAGGUGUGGUGAUGUUUAGU [#09 K4 Tryptophan A Exclusion]	351
UAAAUAAUAAAACGAGUGAUGUUCGACGAUACCAGCCUCGAUAGAGGCCCUUGGCAGCGUAUGUGAUCACUAAGCCAAGGAAUAA [#02 K4 Theophylline A Exclusion]	167
GGUGCGCUGUUAGUGAUGUUAACCGAGGAUACCAGUUAGGCGUCUAACCCUUGGCAGCCUCUCUGGUCUCAUCAACGUUGUGCUA [theeternabot_exclusion_KL_Theo_A_37]	599
UUACCAAGUGAUGUUUGGAAAUAUCCUAGGCAGGAUAUGCGGAAACGCAGAAGGGCCACCUGAUAGUGAAGGAAACUUCGCUAUC [Ex FMN A 1]	152
GUAGUGAUGUUACGAAUAUUCCAUCAUAGAGAGGAUAUUGUUCCUUCGAGAAGGUUCUGAGAAUUAAAAUUUAAUAAAAUGAAGG [Exclusion FMN A GF 1]	277
AUUAAUAACAGAGGAUAUGCAUUUUUAUUAUUUUUAAAUAUUAAAUGCAGUGAUGUUGCAUAUUAAGCAGAAGGCUGAUUUAUUU [JR_SSFMNB_Sub012]	211
GUGCGGCUAGUGAUGUUGGUUGCGUGGGAAGGAGCGCAGAAACAUGCAGGUAGGUCGCCCACAUCUCGGAUAAGAGAUUAAUUCC [Arorso]	252
